Assay type in all cases: binding
Experiment [1] is described as follows: Probe fluorescence ratio response to arachidonate:BSA complex, relative to ADIFAB2 (ΔR/ΔRAD2). The following applies: fluorescence response (R-Ro) relative to ADIFAB2; arachidonate. The gist of the method: (§1)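 Fatty acids presented as BSA complexes (6 μM BSA in HEPES) set to ΔR ≈0.4 with ADIFAB2, i.e. unbound FFA 100-1000 nM. Background-subtracted ratio from excitation 375 nm, emission 550/457 nm; ΔR versus fatty-acid-free BSA, divided by the ADIFAB2 ΔR.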

A short description of experiment [2]: Probe fluorescence ratio response to linolenate:BSA complex, relative to ADIFAB2 (ΔR/ΔRAD2). Conditions: fluorescence response (R-Ro) relative to ADIFAB2; linolenate. The gist of the method:
as §1

Experiment [3] is described as follows: Probe fluorescence ratio response to linoleate:BSA complex, relative to ADIFAB2 (ΔR/ΔRAD2). Conditions: fluorescence response (R-Ro) relative to ADIFAB2; linoleate. The gist of the method: as §1
Experiment [4] in a line: Probe fluorescence ratio response to oleate:BSA complex, relative to ADIFAB2 (ΔR/ΔRAD2). The following applies: fluorescence response (R-Ro) relative to ADIFAB2; oleate. Put shortly:
as §1

Experiment [5] can be described thus: Probe fluorescence ratio response to palmitate:BSA complex, relative to ADIFAB2 (ΔR/ΔRAD2). The following applies: fluorescence response (R-Ro) relative to ADIFAB2; palmitate. Put shortly: as §1
Experiment [6] can be described thus: Probe fluorescence ratio response to palmitoleate:BSA complex, relative to ADIFAB2 (ΔR/ΔRAD2). The following applies: fluorescence response (R-Ro) relative to ADIFAB2.
A short description of experiment [7]: Probe fluorescence ratio response to stearate:BSA complex, relative to ADIFAB2 (ΔR/ΔRAD2). The following applies: fluorescence response (R-Ro) relative to ADIFAB2.

Residue numbers refer to the chain shown, from its start. Names may count otherwise.

B1: L1P12 E11: acrylodan-labeled rI-FABP mutein: Y14 L, L38 wt, L72 W, Y117 wt (protein, UniProt P02693 2-132, looked up, variant Y14L L72W)
Fatty acid-binding protein, …: AFDGTWKVDRNENLEKFMEKMGINVVKRKLGAHDNLKLTITQEGNKFTVKESSNFRNIDVVFELGVDFAYSWADGTELTGTWTMEGNKLVGKFKRVDNGKELIAVREISGNELIQTYTYEGVEAKRIFKKE
modifications: acrylodan label
As for B1, the “ΔR/ΔRAD2 AA” value in experiment [1] is −0.5. In addition, the “ΔR/ΔRAD2 LNA” value in experiment [2] is on record as −0.7. The “ΔR/ΔRAD2 LA” value in experiment [3] is on record as −0.7. For the same molecule, in experiment [4], the “ΔR/ΔRAD2 OA” value was −1.0. In addition, the “ΔR/ΔRAD2 PA” value in experiment [5] is given as −0.1.

B2: L2P16A3: acrylodan-labeled rI-FABP-L72A mutein: M18 I, G31 L, F55 WT, A73 G (protein, UniProt P02693 2-132, looked up, variant M18I G31L L72A A73G)
Fatty acid-binding protein, …: B1 Fatty acid-binding protein, … with L14Y, M18I, G31L, W72A, A73G
modifications: acrylodan label
notes: acrylodan-labeled rI-FABP-L72A mutein: M18 I, G31 L, F55 WT, A73 G
For the molecule B2, in experiment [1], the “ΔR/ΔRAD2 AA” value turned out to be 1.0. Also, in experiment [2], the “ΔR/ΔRAD2 LNA” value was 1.5. Moreover, the “ΔR/ΔRAD2 LA” value in experiment [3] is recorded as 1.1. The “ΔR/ΔRAD2 OA” value in experiment [4] is 0.6. The “ΔR/ΔRAD2 PA” value in experiment [5] came out at 1.1. For the same molecule, the “ΔR/ΔRAD2 POA” value in experiment [6] was found to be 1.4. Besides, the “ΔR/ΔRAD2 SA” value in experiment [7] was determined as 0.3.

B3: L2P1E6: acrylodan-labeled rI-FABP-L72A mutein: M18 L, G31 WT, F55 WT, A73 L (protein, UniProt P02693 2-132, looked up, variant M18L L72A A73L)
Fatty acid-binding protein, …: B1 Fatty acid-binding protein, … with L14Y, M18L, W72A, A73L
modifications: acrylodan label
On to B3, for which, in experiment [1], the “ΔR/ΔRAD2 AA” value was 0.4. The “ΔR/ΔRAD2 LNA” value in experiment [2] turned out to be 0.1. The “ΔR/ΔRAD2 LA” value in experiment [3] came to 0.1. In experiment [4], the “ΔR/ΔRAD2 OA” value is reported as 0.1. Also, in experiment [5], the “ΔR/ΔRAD2 PA” value was determined as 0.0. Moreover, the “ΔR/ΔRAD2 POA” value in experiment [6] was found to be 0.1. The “ΔR/ΔRAD2 SA” value in experiment [7] was 0.2.

B4: L2P22H10: acrylodan-labeled rI-FABP-L72A mutein: M18 I, G31 WT, F55 G, A73 M (protein, UniProt P02693 2-132, looked up, variant M18I F55G L72A A73M)
Fatty acid-binding protein, …: B1 Fatty acid-binding protein, … with L14Y, M18I, F55G, W72A, A73M
modifications: acrylodan label
notes: acrylodan-labeled rI-FABP-L72A mutein: M18 I, G31 WT, F55 G, A73 M
As for B4, the “ΔR/ΔRAD2 AA” value in experiment [1] is recorded as 0.9. Besides, in experiment [2], the “ΔR/ΔRAD2 LNA” value was determined as 1.3. The “ΔR/ΔRAD2 LA” value in experiment [3] was 1.1. Moreover, the “ΔR/ΔRAD2 OA” value in experiment [4] worked out at 0.6. For the same molecule, the “ΔR/ΔRAD2 PA” value in experiment [5] is on record as 1.1. In addition, the “ΔR/ΔRAD2 POA” value in experiment [6] worked out at 1.2. In experiment [7], the “ΔR/ΔRAD2 SA” value worked out at 0.4.

B5: L2P8B8: acrylodan-labeled rI-FABP-L72A mutein: M18 WT, G31 WT, F55 WT, A73 F (protein, UniProt P02693 2-132, looked up, variant L72A A73F)
Fatty acid-binding protein, …: B1 Fatty acid-binding protein, … with L14Y, W72A, A73F
modifications: acrylodan label
notes: acrylodan-labeled rI-FABP-L72A mutein: M18 WT, G31 WT, F55 WT, A73 F
On to B5, for which the “ΔR/ΔRAD2 AA” value in experiment [1] is recorded as 1.1. Also, the “ΔR/ΔRAD2 LNA” value in experiment [2] was 1.8. Further, in experiment [3], the “ΔR/ΔRAD2 LA” value is given as 1.2. The “ΔR/ΔRAD2 OA” value in experiment [4] stood at 0.6. Further, the “ΔR/ΔRAD2 PA” value in experiment [5] was 1.1. Besides, the “ΔR/ΔRAD2 POA” value in experiment [6] is 2.4. Also, the “ΔR/ΔRAD2 SA” value in experiment [7] turned out to be 0.4.

B6: L2P8F11: acrylodan-labeled rI-FABP-L72A mutein: M18 WT, G31 WT, F55 WT, A73 I (protein, UniProt P02693 2-132, looked up, variant L72A A73I)
Fatty acid-binding protein, …: B1 Fatty acid-binding protein, … with L14Y, W72A, A73I
modifications: acrylodan label
notes: acrylodan-labeled rI-FABP-L72A mutein: M18 WT, G31 WT, F55 WT, A73 I
For the molecule B6, the “ΔR/ΔRAD2 AA” value in experiment [1] worked out at 0.4. Besides, in experiment [2], the “ΔR/ΔRAD2 LNA” value is recorded as 0.1. Moreover, in experiment [3], the “ΔR/ΔRAD2 LA” value came to 0.0. The “ΔR/ΔRAD2 OA” value in experiment [4] was 0.0. The “ΔR/ΔRAD2 PA” value in experiment [5] turned out to be 0.0. For the same molecule, the “ΔR/ΔRAD2 POA” value in experiment [6] was found to be 0.1. Besides, the “ΔR/ΔRAD2 SA” value in experiment [7] was found to be 0.3.

B7: L2P9E12: acrylodan-labeled rI-FABP-L72A mutein: M18 L, G31 WT, F55 L, A73 I (protein, UniProt P02693 2-132, looked up, variant M18L F55L L72A A73I)
Fatty acid-binding protein, …: B1 Fatty acid-binding protein, … with L14Y, M18L, F55L, W72A, A73I
modifications: acrylodan label
notes: acrylodan-labeled rI-FABP-L72A mutein: M18 L, G31 WT, F55 L, A73 I
As to B7, in experiment [1], the “ΔR/ΔRAD2 AA” value is listed as 0.6. Moreover, in experiment [2], the “ΔR/ΔRAD2 LNA” value is 0.9. In experiment [3], the “ΔR/ΔRAD2 LA” value is 0.7. Besides, the “ΔR/ΔRAD2 OA” value in experiment [4] was 0.6. For the same molecule, the “ΔR/ΔRAD2 PA” value in experiment [5] amounted to 1.1. Besides, the “ΔR/ΔRAD2 POA” value in experiment [6] came to 0.8. Further, the “ΔR/ΔRAD2 SA” value in experiment [7] is listed as 0.4.
